Measurements from patent publication US20260008856A1 (BLUEFIN BIOMEDICINE, published 2026).
Numbering of substitutions follows the chain as printed.

B1: 10C8_C43A (antibody, V domains shown)
VH: QVQLVESGGGVVQPGRSLRISCAASGFTFRSYGMHWVRQAPGKGLEWVAIIWHDESYKYYVDSVKGRFTISRDNSKNTLYLQMNSLRAEDTAVYYCARGDYYGSGSYYDAFDIWGQGTMVTVSS
VL: DIQMTQSPSSLSASVGDRVIITCRASQGISNYLAWFQQKPGKAPNLLIYAASTLRSGVPSRFSGSGSGTDFTLTISSLQPEDVATYYCQKYNSAPYTFGQGTKVEIK
notes: Cys43Ala variant of 10C8_15A1
B2: 32C12-N26S (antibody, V domains shown)
VH: QVQLVESGGGVVQPGRSLRLSCAASGFTFRNYGIHWVRQAPGKGLEWVAVIWYDGSNKFYADSVKGRFTISRDNSKNTLYLQMNSLRVEDTAVYYCAREEGIAVAPFDYWGQGTLVTVSS
VL: DIQMTQSPSSLSASVGDRVAITCRASQSIASYLNWYQQKPGKAPKLLIYGASSLQNGVPSRFSGSGSRTDFTLTISSLQPEDFATYYCQQSYSTEITFGQGTRLEIK
notes: Asn26Ser (VL CDR1) variant of 32C12_21A4
B3: 41G4_15B6 (antibody, V domains shown)
VH: B2 VH with I34M
VL: B2 VL with S26N
notes: Recombinant human antibody
B4: 32F9_21A5 (antibody, V domains shown)
VH: QLQLVESGGGVVQPGRSLRLSCAASGFTFSSHGMHWVRQAPGKGLEWVAVIWYDGSSEYYADSVKGRFTISRDNSKNTLYLQMNSLRAEDTAVYYCARENVYGSGWFFDYWGQGSLVTVSS
VL: EIVMTQSPATLSVSPGERASLSCRASQSVGSNLAWYQQKPGQAPRLLIFGASTRATGIPARFSGSRSGTEFTLTISSLQSEDFALYYCQQYNNWPPWTFGQGTKLEIK
notes: Recombinant human antibody
B5: 16H2_17D1 (antibody, V domains shown)
VH: EVQLLESGADLVQPGGSLRLSCAASGFTFSSYAMSWVRQAPGKGLEWVSTIRISGGTTYYADSVKGRFTISRDNSKNTLYLQMNSLRAEDTAVYYCVRDYYNGMDVWGQGTTVTVSS
VL: EIVLTQSPATLSLSPGERATLSCRASQRVSSYLAWYQQKPGQAPRLLIYDASNRATGIPARFSGSGSGTDFTLTISSLEPEDFAVYYCQQRSYWPPAFGQGTKLEIK
notes: Recombinant human antibody
B6: 10C8-15A4 (antibody, V domains shown)
VH: B5 VH with V2E, V12A, G56D, Y80F, Q109H
VL: B5 VL
notes: Recombinant human antibody
B7: 26C5_15B4 (antibody, V domains shown)
VH: B5 VH with V2A, A9G, D10G, R52S, I53G, T57S, Y59H, N102Y
VL: B5 VL with R28S, A97T
notes: Recombinant human antibody
B8: 5D12_C108Y (antibody, V domains shown)
VH: QVQLQESGPGLVKPLGTLSLTCAVSGGSISNSNWWSWVRQPPGKGLEWIGEIYHSGSTNYNPSLKSRVTIALDWSKNQFSLQLRSVTAADTAVYYCARYGSGPFGGDYWGQGTLVTVSS
VL: DIQLTQSPSFLSASVGDRVTISCRASQGISSYLAWYQQKPGKAPKLLIYAASTLQGGVPSRFSGSGSGTTFTLTISSLQPEDFATYYCQQLNTYPFTFGPGTKLEIK
notes: Cys108Tyr (VH) variant of 5D12_18A4
B9: 17E9_15B1 (antibody, V domains shown)
VH: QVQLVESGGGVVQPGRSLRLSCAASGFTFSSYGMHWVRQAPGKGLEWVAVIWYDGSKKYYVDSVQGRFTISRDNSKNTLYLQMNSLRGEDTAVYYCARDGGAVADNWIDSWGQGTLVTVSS
VL: DIQMTQSPSSLSASVGDRVTLTCRASQNIRSYLNWYQQKPGKAPKLLIFAASSLPSGVPSRFSGSGSVTDFTLTVSSLQPEDFATYSCQQSYSTPYTFGQGTKLEIK
notes: Recombinant human antibody
B10: 34D1_21B3 (antibody, V domains shown)
VH: QGQLVESGGGVVQPGRSLRLSCAASGFTFSSYTLHWVRQAPGKGLEWVAVIWYDGSNKYYVDSVKGRFTISRDNSKNTLYLQMNSLRAEDTAVYYCAREYGSGSYYNVYYGMDVWGQGTTVTVSS
VL: DIVMTQSPLSLPVTPGEPASISCRSSQSLLHSNGYKYLDWYLQKAGQSPHLLIYLGSNRASGVPDRFSGSGSGTDFTLKISRVEAEDVGFYYCMQTLQIPLTFGGGTKLEIK
notes: Recombinant human antibody

Biological target: T1, huIL1RAP ECD recombinant protein (human, UniProt Q9NPH3 21-367)
T1 construct: also called recombinant human IL1RAP-ECD; recombinant human IL1RAP; not shown: C-terminal histidine tag for purification
Experiment: Octet BLI, antibody on Protein A biosensor, recombinant huIL1RAP ECD
Protocol: Affinity: The affinity of antibodies to various recombinant IL1RAP protein was determined on an Octet Red™ instrument. After loading reagents into a 96-well plate, the Octet Red™ with Protein A-conjugated biosensors was programmed as follows: 30 seconds for baseline #1; 120 seconds to immobilize the antibody; 30 seconds for baseline #2; 300 seconds for association of antibody to recombinant IL1RAP; and 300-600 seconds for dissociation of recombinant IL1RAP from the antibody.

| Kd [nM] | Binder |
| --- | --- |
| 13 | B1 |
| 19 | B2 |
| 5 | B3 |
| 2 | B4 |
| 50 | B5 |
| 1 | B6 |
| 127 | B7 |
| 13 | B8 |
| 21 | B9 |
| 3 | B10 |
